Laboratory results as given in the supplement of paper PMC10065799, “High-throughput profiling of sequence recognition by tyrosine kinases and SH2 domains using bacterial peptide display” (eLife, 2023).

Legend:
AncSZ = test: phosphorylation enrichment, bacterial display (enrichment ratio); higher = better substrate or ligand; peptides without Tyr show the background
EPHB1 = EPHB1 (UniProt P54762); test: as above
EPHB2 = EPHB2 (UniProt P29323); test: as above
FGFR1 = FGFR1 (UniProt P11362); test: as above
FGFR3 = FGFR3 (UniProt P22607); test: as above
Sequence of FGFR3 (P22607 whole entry, looked up): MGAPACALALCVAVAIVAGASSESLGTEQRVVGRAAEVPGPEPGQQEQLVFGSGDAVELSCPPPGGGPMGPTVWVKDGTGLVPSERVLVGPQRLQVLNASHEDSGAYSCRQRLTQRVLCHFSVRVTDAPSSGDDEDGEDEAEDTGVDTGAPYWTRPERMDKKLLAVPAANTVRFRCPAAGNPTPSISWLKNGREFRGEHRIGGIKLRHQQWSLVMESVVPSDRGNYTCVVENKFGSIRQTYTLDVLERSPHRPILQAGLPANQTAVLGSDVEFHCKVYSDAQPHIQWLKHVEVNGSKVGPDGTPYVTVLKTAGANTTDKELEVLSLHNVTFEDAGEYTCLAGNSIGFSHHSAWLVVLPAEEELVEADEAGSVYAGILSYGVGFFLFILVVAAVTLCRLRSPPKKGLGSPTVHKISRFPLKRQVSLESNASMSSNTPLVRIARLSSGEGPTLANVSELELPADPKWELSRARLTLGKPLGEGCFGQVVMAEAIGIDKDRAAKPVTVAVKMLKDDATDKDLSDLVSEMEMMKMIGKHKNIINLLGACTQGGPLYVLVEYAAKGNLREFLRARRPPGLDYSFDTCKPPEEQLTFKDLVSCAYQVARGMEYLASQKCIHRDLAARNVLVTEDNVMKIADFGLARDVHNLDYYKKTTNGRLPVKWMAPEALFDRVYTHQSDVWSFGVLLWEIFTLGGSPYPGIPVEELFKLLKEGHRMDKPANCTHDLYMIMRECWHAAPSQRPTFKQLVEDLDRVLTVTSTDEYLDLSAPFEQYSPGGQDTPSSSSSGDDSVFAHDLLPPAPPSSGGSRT

Fer (mouse) = test: as above
Fes = Fes (UniProt P07332); test: as above
Sequence of Fes (P07332 whole entry, looked up): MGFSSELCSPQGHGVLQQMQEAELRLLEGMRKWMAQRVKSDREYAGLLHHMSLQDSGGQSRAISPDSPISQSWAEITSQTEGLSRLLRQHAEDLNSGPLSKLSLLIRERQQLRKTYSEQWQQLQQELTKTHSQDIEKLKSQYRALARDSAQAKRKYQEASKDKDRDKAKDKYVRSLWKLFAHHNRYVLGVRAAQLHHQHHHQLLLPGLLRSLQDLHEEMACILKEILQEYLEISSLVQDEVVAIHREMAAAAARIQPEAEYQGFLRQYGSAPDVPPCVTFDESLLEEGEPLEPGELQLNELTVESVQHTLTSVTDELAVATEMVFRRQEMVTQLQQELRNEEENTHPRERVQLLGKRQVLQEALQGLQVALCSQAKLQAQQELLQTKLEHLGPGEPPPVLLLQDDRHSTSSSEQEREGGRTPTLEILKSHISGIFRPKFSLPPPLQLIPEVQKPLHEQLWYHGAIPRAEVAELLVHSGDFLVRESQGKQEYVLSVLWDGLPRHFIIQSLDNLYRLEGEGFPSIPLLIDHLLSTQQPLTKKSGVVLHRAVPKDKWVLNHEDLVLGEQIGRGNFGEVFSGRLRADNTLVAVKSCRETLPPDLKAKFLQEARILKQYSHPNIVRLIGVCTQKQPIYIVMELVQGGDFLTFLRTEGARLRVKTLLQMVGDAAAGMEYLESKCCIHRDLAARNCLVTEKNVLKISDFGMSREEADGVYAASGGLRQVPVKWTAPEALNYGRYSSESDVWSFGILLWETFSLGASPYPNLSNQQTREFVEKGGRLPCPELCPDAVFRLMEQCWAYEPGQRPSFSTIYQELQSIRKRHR

Fyn = Fyn (UniProt P06241); test: as above
Hck = Hck (UniProt P08631); test: as above
Jak2 = Jak2 (UniProt O60674); test: as above
MERTK = MERTK (UniProt Q12866); test: as above
Sequence of MERTK (Q12866 whole entry, looked up): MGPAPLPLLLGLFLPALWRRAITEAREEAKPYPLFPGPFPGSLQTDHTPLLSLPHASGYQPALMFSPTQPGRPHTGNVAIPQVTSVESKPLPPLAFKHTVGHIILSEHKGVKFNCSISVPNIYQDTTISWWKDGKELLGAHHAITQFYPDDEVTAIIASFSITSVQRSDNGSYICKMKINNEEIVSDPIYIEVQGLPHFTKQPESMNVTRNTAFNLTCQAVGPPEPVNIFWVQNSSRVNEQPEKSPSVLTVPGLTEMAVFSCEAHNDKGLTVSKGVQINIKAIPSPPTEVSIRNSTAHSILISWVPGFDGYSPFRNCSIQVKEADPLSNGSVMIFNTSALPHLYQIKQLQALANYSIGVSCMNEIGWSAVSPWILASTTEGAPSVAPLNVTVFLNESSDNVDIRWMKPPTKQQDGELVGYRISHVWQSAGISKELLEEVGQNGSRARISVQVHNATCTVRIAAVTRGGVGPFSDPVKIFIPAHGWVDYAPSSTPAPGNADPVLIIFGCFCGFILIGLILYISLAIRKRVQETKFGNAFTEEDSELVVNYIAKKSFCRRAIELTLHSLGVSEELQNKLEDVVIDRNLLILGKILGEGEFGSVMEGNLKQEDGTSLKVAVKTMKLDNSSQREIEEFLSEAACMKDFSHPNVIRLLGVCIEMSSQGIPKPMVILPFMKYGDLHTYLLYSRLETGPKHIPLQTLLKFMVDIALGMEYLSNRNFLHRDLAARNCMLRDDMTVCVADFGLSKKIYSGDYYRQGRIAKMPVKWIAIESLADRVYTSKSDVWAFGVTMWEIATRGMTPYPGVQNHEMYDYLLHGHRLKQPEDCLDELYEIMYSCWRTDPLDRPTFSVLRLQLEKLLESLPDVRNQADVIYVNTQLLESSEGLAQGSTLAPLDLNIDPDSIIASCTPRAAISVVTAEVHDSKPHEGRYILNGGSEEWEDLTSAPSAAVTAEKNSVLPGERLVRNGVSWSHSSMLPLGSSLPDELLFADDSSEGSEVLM

c-Abl (mouse) = test: as above
c-Src = test: as above
Grb2 SH2 = Grb2 SH2 (UniProt P62993); test: SH2 binding enrichment of the phosphorylated peptide, bacterial display (enrichment ratio); higher = better substrate or ligand; peptides without Tyr show the background
Sequence of Grb2 SH2 (P62993 whole entry, looked up): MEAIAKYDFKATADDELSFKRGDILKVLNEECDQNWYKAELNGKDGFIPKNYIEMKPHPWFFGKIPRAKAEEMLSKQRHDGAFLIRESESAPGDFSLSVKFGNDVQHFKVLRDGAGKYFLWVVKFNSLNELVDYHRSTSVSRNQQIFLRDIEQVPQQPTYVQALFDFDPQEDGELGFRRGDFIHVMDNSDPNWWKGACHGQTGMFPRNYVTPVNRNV

SHP2-C SH2 = test: as above
c-Src SH2 = test: as above
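Throughout, for SH2 binding enrichment of the phosphorylated peptide, bacterial display: peptide library displayed on the E. coli surface as eCPX fusions, selected cells deep-sequenced, score is each peptide's frequency after selection divided by its frequency in the input.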
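Throughout, for phosphorylation enrichment, bacterial display: 11-residue human phosphosite peptides and single-mutation variants displayed on the E. coli surface, counted by deep sequencing, each peptide's frequency after selection divided by its frequency in the unselected input library; frequency after pTyr selection over input frequency; kinase dosed for 20-30% of maximal phosphorylation in three min.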

Sequence of EPHB2 (P29323 whole entry, looked up): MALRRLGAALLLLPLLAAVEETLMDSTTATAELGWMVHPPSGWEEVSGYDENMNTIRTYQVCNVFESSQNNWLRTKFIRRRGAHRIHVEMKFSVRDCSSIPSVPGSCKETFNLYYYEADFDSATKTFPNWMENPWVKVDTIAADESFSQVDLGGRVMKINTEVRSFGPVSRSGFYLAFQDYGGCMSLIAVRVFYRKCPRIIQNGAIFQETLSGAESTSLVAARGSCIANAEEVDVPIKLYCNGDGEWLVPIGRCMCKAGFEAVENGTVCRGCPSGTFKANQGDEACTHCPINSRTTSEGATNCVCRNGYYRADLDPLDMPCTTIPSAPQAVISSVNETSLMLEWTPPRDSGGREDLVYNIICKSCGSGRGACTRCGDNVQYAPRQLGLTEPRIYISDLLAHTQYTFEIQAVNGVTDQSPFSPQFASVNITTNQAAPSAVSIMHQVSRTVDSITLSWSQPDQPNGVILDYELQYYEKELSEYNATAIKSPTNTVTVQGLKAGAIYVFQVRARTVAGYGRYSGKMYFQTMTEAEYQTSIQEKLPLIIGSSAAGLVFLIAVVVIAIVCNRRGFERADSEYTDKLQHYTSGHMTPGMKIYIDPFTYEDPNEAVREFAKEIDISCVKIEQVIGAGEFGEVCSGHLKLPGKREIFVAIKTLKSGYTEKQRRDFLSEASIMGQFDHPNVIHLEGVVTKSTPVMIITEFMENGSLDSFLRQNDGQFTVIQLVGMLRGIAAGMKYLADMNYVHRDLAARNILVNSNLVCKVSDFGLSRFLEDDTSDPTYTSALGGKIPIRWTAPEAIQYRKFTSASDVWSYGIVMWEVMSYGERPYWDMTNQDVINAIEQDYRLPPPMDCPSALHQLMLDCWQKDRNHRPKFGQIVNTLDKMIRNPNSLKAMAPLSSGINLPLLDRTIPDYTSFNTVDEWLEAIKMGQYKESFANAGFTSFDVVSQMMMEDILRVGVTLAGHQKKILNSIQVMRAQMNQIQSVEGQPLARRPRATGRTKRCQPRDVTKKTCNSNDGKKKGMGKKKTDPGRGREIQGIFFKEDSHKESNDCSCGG
Sequence of EPHB1 (P54762 whole entry, looked up): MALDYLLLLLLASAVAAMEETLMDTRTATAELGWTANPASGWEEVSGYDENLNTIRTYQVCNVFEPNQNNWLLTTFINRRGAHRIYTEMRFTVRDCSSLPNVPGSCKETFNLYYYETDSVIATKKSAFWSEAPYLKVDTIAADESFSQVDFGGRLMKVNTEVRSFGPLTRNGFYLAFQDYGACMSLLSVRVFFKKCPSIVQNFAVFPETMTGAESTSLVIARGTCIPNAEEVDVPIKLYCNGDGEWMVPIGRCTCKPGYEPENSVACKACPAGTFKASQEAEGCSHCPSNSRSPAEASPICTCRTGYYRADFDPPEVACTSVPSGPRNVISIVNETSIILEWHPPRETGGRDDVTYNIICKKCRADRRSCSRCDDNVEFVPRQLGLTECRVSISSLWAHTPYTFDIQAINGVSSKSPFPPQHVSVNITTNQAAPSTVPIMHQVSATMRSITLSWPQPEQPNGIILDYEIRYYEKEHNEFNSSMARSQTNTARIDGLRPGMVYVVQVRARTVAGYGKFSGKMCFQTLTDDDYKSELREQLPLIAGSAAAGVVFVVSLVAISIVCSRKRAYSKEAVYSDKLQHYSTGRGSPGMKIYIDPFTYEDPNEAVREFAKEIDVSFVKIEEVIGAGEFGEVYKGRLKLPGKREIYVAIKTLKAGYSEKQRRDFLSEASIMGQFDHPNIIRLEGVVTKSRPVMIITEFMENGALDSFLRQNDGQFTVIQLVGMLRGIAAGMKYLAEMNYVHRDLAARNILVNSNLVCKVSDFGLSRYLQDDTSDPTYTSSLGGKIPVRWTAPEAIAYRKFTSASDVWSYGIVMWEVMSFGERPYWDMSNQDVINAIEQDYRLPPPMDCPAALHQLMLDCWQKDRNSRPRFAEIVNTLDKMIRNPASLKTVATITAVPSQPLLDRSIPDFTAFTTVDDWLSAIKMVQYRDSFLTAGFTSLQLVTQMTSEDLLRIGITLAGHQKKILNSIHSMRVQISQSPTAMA

| Sequence | phosphorylation enrichment (AncSZ) | phosphorylation enrichment (EPHB1) | phosphorylation enrichment (EPHB2) | phosphorylation enrichment (FGFR1) | phosphorylation enrichment (FGFR3) | phosphorylation enrichment (Fer (mouse)) | phosphorylation enrichment (Fes) | phosphorylation enrichment (Fyn) | phosphorylation enrichment (Hck) | phosphorylation enrichment (Jak2) | phosphorylation enrichment (MERTK) | phosphorylation enrichment (c-Abl (mouse)) | phosphorylation enrichment (c-Src) | SH2 binding enrichment (Grb2 SH2) | SH2 binding enrichment (SHP2-C SH2) | SH2 binding enrichment (c-Src SH2) |
| --- | --- | --- | --- | --- | --- | --- | --- | --- | --- | --- | --- | --- | --- | --- | --- | --- |
| ALAHKYPGGGG [HBB_Y146_H147P] | 0.214 | 0.894 | 0.84 | 0.853 | 0.662 | 0.432 | 0.632 | 0.559 | 0.273 | 0.262 | 0.334 | 0.436 | 0.281 | 0.516 | 0.581 | 0.384 |
| ALERPYTSKHS [NANS_Y71] | 0.531 | 0.372 | 0.459 | 0.381 | 0.398 | 0.353 | 0.535 | 0.406 | 0.463 | 0.564 | 0.442 | 0.615 | 0.461 | 0.866 | 0.529 | 0.6 |
| ALKKPYSVLFK [RPF2_Y59_G60S_YF] | 0.815 | 0.411 | 0.43 | 0.556 | 0.617 | 0.502 | 0.968 | 0.419 | 0.435 | 0.729 | 0.448 | 0.581 | 0.526 | 1.6 | 1.65 | 1.58 |
| ALWFIYSHTRS [ENG_Y614_YF] | 1.01 | 0.597 | 0.445 | 0.44 | 0.676 | 0.45 | 1.5 | 0.423 | 0.448 | 0.956 | 0.34 | 0.697 | 0.379 | 1.13 | 0.81 | 0.552 |
| ANLAKYGNPNE [BCHE_Y505_F502L] | 0.778 | 0.492 | 0.455 | 0.392 | 0.65 | 0.391 | 0.779 | 0.385 | 0.403 | 0.622 | 0.379 | 0.565 | 0.306 | 0.645 | 0.639 | 0.425 |
| ANQDDYISFRH [IMP4_Y226] | 1.17 | 0.507 | 0.469 | 1.07 | 0.967 | 0.357 | 0.841 | 0.899 | 1.19 | 0.901 | 0.482 | 0.557 | 1.11 | 0.821 | 0.617 | 0.46 |
| APNEFYDGDHD [HDAC3_Y414] | 1.3 | 0.613 | 0.605 | 0.624 | 1.18 | 0.59 | 1.29 | 0.535 | 0.769 | 1.32 | 0.602 | 1.04 | 0.574 | 0.727 | 0.632 | 0.57 |
| ARGMEYLAEQK [MST1R_Y1198_G1195S] | 0.807 | 0.488 | 0.47 | 0.39 | 0.826 | 0.384 | 0.914 | 0.491 | 0.46 | 0.77 | 0.435 | 0.599 | 0.381 | 0.741 | 0.603 | 0.524 |
| ASPALYRLDLD [TRIL_Y352] | 0.798 | 0.818 | 0.596 | 0.552 | 0.688 | 0.484 | 1.16 | 0.922 | 0.617 | 0.873 | 0.484 | 0.763 | 1.84 | 0.753 | 0.557 | 0.457 |
| ATARPYSPFII [LRP5_Y1528_R1529S_YF] | 0.627 | 0.403 | 0.474 | 0.409 | 0.618 | 9.77 | 0.735 | 0.504 | 0.594 | 0.508 | 0.552 | 0.467 | 0.633 | 1.04 | 0.75 | 0.715 |
| ATDLAYYLVRK [ASL_Y375] | 1.63 | 0.602 | 0.543 | 4.91 | 4.21 | 0.786 | 1.41 | 0.85 | 0.885 | 3.03 | 1.19 | 1.04 | 1.27 | 1.25 | 0.988 | 0.798 |
| ATPKGYETDAS [OTC_Y223_P225T] | 0.735 | 0.502 | 0.543 | 0.54 | 0.616 | 0.416 | 0.743 | 0.44 | 0.438 | 0.667 | 0.421 | 0.622 | 0.524 | 0.866 | 0.596 | 0.56 |
| AVHPGYGFLSE [PCCA_Y143] | 0.663 | 0.46 | 0.672 | 0.662 | 1.12 | 0.545 | 0.99 | 0.487 | 0.666 | 0.82 | 0.527 | 0.692 | 0.47 | 0.706 | 0.523 | 0.466 |
| AVISVYDLVAV [PSEN1_Y256] | 1.24 | 6.18 | 4.92 | 0.429 | 0.577 | 13 | 1.2 | 6.35 | 6.2 | 0.82 | 6.38 | 0.753 | 4.51 | 1.03 | 1.03 | 1.39 |
| CDDGKYVYVVT [RPS6KA3_Y488_Y483C] | 1.48 | 0.896 | 0.777 | 0.834 | 1.15 | 0.798 | 1.6 | 0.84 | 0.75 | 1.42 | 0.525 | 1.05 | 0.863 | 0.75 | 0.548 | 0.443 |
| CEHRGYLYLAI [TEK_Y897] | 1.04 | 0.664 | 0.53 | 0.726 | 0.72 | 0.551 | 1.51 | 0.494 | 0.614 | 0.973 | 0.708 | 0.84 | 0.527 | 1.21 | 0.761 | 0.741 |
| CENCHYPILPL [LCK_Y25_V28L] | 0.678 | 0.43 | 0.422 | 0.541 | 0.632 | 0.423 | 0.903 | 0.391 | 0.746 | 0.718 | 0.357 | 0.607 | 0.436 | 1.13 | 1.29 | 0.912 |

| Sequence | phosphorylation enrichment (AncSZ) | phosphorylation enrichment (EPHB1) | phosphorylation enrichment (EPHB2) | phosphorylation enrichment (FGFR1) | phosphorylation enrichment (FGFR3) | phosphorylation enrichment (Fer (mouse)) | phosphorylation enrichment (Fes) | phosphorylation enrichment (Fyn) | phosphorylation enrichment (Hck) | phosphorylation enrichment (Jak2) | phosphorylation enrichment (MERTK) | phosphorylation enrichment (c-Abl (mouse)) | phosphorylation enrichment (c-Src) | SH2 binding enrichment (Grb2 SH2) | SH2 binding enrichment (SHP2-C SH2) | SH2 binding enrichment (c-Src SH2) |
| --- | --- | --- | --- | --- | --- | --- | --- | --- | --- | --- | --- | --- | --- | --- | --- | --- |
| CERFSYFGMKA [SLC15A2_Y60_YF] | 1.13 | 0.571 | 0.745 | 1.24 | 0.938 | 0.467 | 1.26 | 0.529 | 0.557 | 2.66 | 0.544 | 0.94 | 0.575 | 1.02 | 0.577 | 0.704 |
| CGTPDYIAPEI [PRKCG_Y521] | 1.99 | 0.715 | 0.755 | 1.23 | 1.26 | 0.484 | 1.14 | 0.53 | 0.568 | 0.882 | 0.444 | 0.632 | 0.433 | 0.853 | 0.699 | 0.589 |
| CGTPDYIDPEI [PRKCG_Y521_A523D] | 1.58 | 1.1 | 0.725 | 2.28 | 1.85 | 0.531 | 1.41 | 0.581 | 0.7 | 1.31 | 0.454 | 0.813 | 0.481 | 0.814 | 0.52 | 0.461 |
| CKPGFYNLKEK [LAMA1_Y490] | 0.693 | 0.543 | 0.469 | 0.472 | 0.507 | 0.43 | 0.793 | 0.359 | 0.357 | 0.602 | 0.378 | 0.568 | 0.34 | 1.06 | 0.769 | 0.611 |
| CLEKEYFDQHF [NPC1_Y394_R389C] | 1.53 | 0.581 | 0.572 | 0.949 | 1.13 | 0.593 | 1.32 | 0.514 | 0.508 | 1.04 | 0.406 | 0.902 | 0.585 | 0.906 | 0.547 | 0.752 |
| CPPKVYELMRA [ABL2_Y515] | 0.662 | 8.38 | 2.41 | 0.73 | 0.679 | 6.41 | 1.04 | 1.13 | 1.81 | 0.53 | 3.81 | 0.585 | 1.33 | 0.944 | 0.693 | 1.53 |
| CQAHGYSCQLI [STK11_Y156_F157S] | 0.77 | 0.568 | 0.508 | 0.529 | 0.531 | 0.506 | 0.925 | 0.648 | 0.5 | 0.556 | 0.47 | 0.492 | 0.435 | 0.854 | 0.847 | 0.768 |
| CTLLPYFSAPV [DGKE_Y269_R273P_YF] | 1.24 | 0.66 | 0.677 | 0.615 | 0.826 | 0.493 | 1.34 | 0.518 | 0.557 | 1.19 | 0.453 | 0.896 | 0.569 | 0.71 | 0.622 | 0.462 |
| CTNELYMMMRD [FGFR1_Y730] | 1.34 | 1.86 | 1.09 | 0.935 | 1.28 | 0.693 | 1.38 | 0.705 | 1.47 | 1.35 | 2 | 0.898 | 1.15 | 0.633 | 0.502 | 0.427 |
| CTTFHYNYMCN [TP53_Y234_I232F] | 1.03 | 0.809 | 0.629 | 0.696 | 0.713 | 0.659 | 1.05 | 0.547 | 0.514 | 0.842 | 0.475 | 0.955 | 0.507 | 1.17 | 1.82 | 4.4 |
| CTTIHKNFMCN [TP53_Y234_Y234K_YF] | 0.831 | 0.394 | 0.53 | 0.486 | 0.585 | 0.453 | 0.699 | 0.409 | 0.405 | 0.553 | 0.42 | 0.49 | 0.448 | 1.1 | 0.795 | 0.653 |
| CTTIHYIYMCN [TP53_Y234_N235I] | 0.728 | 0.459 | 0.461 | 0.404 | 0.548 | 0.478 | 0.989 | 0.254 | 0.322 | 0.907 | 0.281 | 0.742 | 0.263 | 0.894 | 1.35 | 0.716 |
| CTTIHYMYMCN [TP53_Y234_N235M] | 1.06 | 0.62 | 0.517 | 0.485 | 0.772 | 0.556 | 1.14 | 0.362 | 0.45 | 0.973 | 0.34 | 0.681 | 0.332 | 0.998 | 2.59 | 1.06 |
| CTTIHYSYMCN [TP53_Y234_N235S] | 0.897 | 0.524 | 0.628 | 0.667 | 0.724 | 1.01 | 0.916 | 0.465 | 0.53 | 0.663 | 0.874 | 0.627 | 0.526 | 1.58 | 6.33 | 5.17 |
| CTTIHYTFMCN [TP53_Y234_N235T_YF] | 0.939 | 0.562 | 0.553 | 0.718 | 0.754 | 0.575 | 1.14 | 0.535 | 0.576 | 0.976 | 0.536 | 0.819 | 0.653 | 1.83 | 3.21 | 1.85 |
| CTTIHYYYMCN [TP53_Y234_N235Y] | 0.991 | 0.585 | 0.773 | 2.74 | 2.11 | 0.574 | 1.08 | 1.41 | 0.804 | 1.27 | 0.767 | 0.644 | 1.05 | 1.6 | 1.96 | 2.94 |
